# B1: RRE IIB C46-G74 mutant (ssRNA)
# RNA: GGCUGGUAUCGGCGCAGCGUCAAUGACGCUGACGGUAGAGGCCAGCC
# modifications: [10,38]
# Target: Rev34-50 peptide I (free N- and C-termini) (HIV-1)
# Test: EMSA; apparent nonspecific Kd with tRNA, 4 C
# Details: protein: synthetic; tags: synthetic peptide, unmodified termini; label: 32P; stem-loop with internal bulge
binder,measurement,value
B1,Kd,3 µM

# From patent US5654398, “Compositions and methods for inhibiting replication of human immunodeficiency virus-1” (The Regents of the University of California)
